Assay [1] deals with HIV-1 AD8 gp41 K601N (HIV-1 AD8).
Assay [2] has as its target HIV-1 AD8 gp41 (wild type), cut from Env gp160 (HIV-1 AD8).
Assay [3] has as its target HIV-1 AD8 gp41 K601N (HIV-1 AD8). The assay can be described thus: gp120 shedding assay (radioimmunoprecipitation of cell lysates and culture supernatants); 293T cells transfected with Env vectors, 35S pulse 45 min, chase 5-6 h; cell lysates and clarified supernatants immunoprecipitated with IgG14 and protein G Sepharose; reducing SDS-PAGE, phosphorimager; gp120-shedding index against WT.

The target in assay [4] is HIV-1 AD8 gp41 K601D (HIV-1 AD8). The description is as above.
Assay [5] concerns the target HIV-1 AD8 gp41 (wild type), cut from Env gp160. The assay is described as follows: radioimmunoprecipitation with HIVIG of metabolically labelled cell lysates and supernatants, SDS-PAGE, phosphorimager scanning.

Chain of C34, HR2-based fusion inhibitor peptide (P03375 628-661): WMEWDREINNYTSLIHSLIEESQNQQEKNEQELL

C34, HR2-based fusion inhibitor peptide yielded an IC50 of C34 for inhibition of cell-cell fusion by ΔN139INN/K601N Env (luciferase) in assay [1] of 0.1 µM. In assay [2], this substance registered an IC50 of C34 for inhibition of cell-cell fusion by WT Env (luciferase) of 0.1 µM.
Take “HIV-1 AD8 gp120 (wild type), cut from Env gp160 (natural protein)”: the figures for the gp120 shedding, fold with respect to WT in assay [3] and in assay [4] were 4.4 fold and 6.8 fold, respectively.
Turning to “HIV-1 AD8 gp120 (wild type), cut from Env gp160 N160Q”, in assay [5], the other: gp120-shedding index worked out at 0.7.
“HIV-1 AD8 gp120 (wild type), cut from Env gp160 S143N” registered an other: gp120-shedding index in assay [5] of 0.6.
The same measure, in the same setting: the same measure for “HIV-1 AD8 gp120 (wild type), cut from Env gp160 S144N”: 0.6; for “HIV-1 AD8 gp120 (wild type), cut from Env gp160 S158N”: 3.6.
Same read-out and setting: the same measure for “HIV-1 AD8 gp120 (wild type), cut from Env gp160 S188N”: 1.6.
On the same count and under the same terms, the same measure for “HIV-1 AD8 gp120 (wild type), cut from Env gp160 T138N”: 0.5.
In assay [4], HIV-1 AD8 gp120 T138N (natural protein) came in with a gp120-gp41 association, fold improvement with respect to K601D of 2 fold.

Values taken from paper PMC3616969.
